Assay results taken from PMC12509757 (2025).

Biological target: BSA (Bos taurus (Bovine), UniProt P02769)
Assay: co-sedimentation (ultracentrifugation pelleting, immunoblot), BSA in place of microtubules as negative control

Chain of BSA (P02769 25-607): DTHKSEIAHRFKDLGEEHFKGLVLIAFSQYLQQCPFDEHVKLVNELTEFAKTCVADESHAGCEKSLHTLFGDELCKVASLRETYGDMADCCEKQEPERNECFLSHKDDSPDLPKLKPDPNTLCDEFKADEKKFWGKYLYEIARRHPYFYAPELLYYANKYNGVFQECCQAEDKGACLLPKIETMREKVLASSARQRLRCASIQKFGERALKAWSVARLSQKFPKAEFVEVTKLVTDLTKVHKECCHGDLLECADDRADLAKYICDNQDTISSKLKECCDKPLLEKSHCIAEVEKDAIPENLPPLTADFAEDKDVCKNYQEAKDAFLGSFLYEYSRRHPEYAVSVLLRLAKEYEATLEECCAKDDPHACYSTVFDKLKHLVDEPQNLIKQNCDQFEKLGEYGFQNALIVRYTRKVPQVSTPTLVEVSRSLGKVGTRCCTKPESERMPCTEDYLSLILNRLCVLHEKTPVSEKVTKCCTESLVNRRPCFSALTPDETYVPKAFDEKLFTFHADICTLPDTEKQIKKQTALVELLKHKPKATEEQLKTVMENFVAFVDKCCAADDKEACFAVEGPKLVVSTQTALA

binding result: no binding
B1: His GST BAR-PH (aa 1-388) of ARHGAP10, WT (protein)
chain: MGLQPLEFSDCYLDSPWFRERIRAHEAELERTNKFIKELIKDGKNLIAATKSLSVAQRKFAHSLRDFKFEFIGDAVTDDERCIDASLREFSNFLKNLEEQREIMALSVTETLIKPLEKFRKEQLGAVKEEKKKFDKETEKNYSLIDKHLNLSAKKKDSHLQEADIQVEQNRQHFYELSLEYVCKLQEIQERKKFEFVEPMLSFFQGMFTFYHQGHELAKDFNHYKMELQINIQNTRNRFEGTRSEVEELMNKIRQNPKDHKRASQFTAEGYLYVQEKRPAPFGSSWVKHYCMYRKAAKKFNMIPFEHRSGGKLGDGEVFFLKECTKRHTDSIDRRFCFDIEAADRPGVSLTMQAFSEEERKQWLEALGGKEALSHSFNTAIIPRPEGN
